Source: patent US20180258158A1 (Bristol-Myers Squibb, published 2018)

Key:
[1] = molecular target: T1, mouse serum albumin (MSA), full length (mouse, UniProt P07724 25-608); test: direct binding ELISA, coated MSA, anti-His-HRP; design: unit not given here
T1 construct: mature; Immobilized on CM5 chip (SPR) or coated on plates (ELISA); also called mouse albumin; murine serum albumin
Method: (§1) Direct binding ELISA assays were conducted as follows. Full length human and murine serum albumin at 10ug/ml in PBS were coated on Nunc Maxisorp plates overnight at 4° C. Plates were blocked in casein/PBS buffer. PKE Adnectins were allowed to bind over a 4-point concentration range of 0.032-4 uM for HSA and 0.008-1 uM for MSA. Bound Adnectin was detected by anti-His antibody conjugated with HRP (horseradish peroxidase) diluted 1:1500 in casein/PBS. Plates were developed with TMB substrate and absorbance read at 450 nm. Adnectins were binned as high, medium and low affinity binders based on the observed Ymax of the concentration response curves.

[2] = molecular target: T2, human serum albumin (HSA), full length (human, UniProt P02768 25-609); test: SPR off-rate, immobilized HSA, 500 nM Adnectin, 25 C
T2 construct: mature; Immobilized on CM5 chip (SPR) or coated on plates (ELISA)
Method: (§2) Measurements were conducted by SPR and ELISA. SPR was conducted as follows. Full length HSA or mouse albumin was immobilized on a Biacore T series CM5 chip at 15 ug/mL in 10 mM acetate buffer (pH 5.0) buffer using standard NHS/EDC coupling, to a surface density of approximately 1000-1100 RU. For off-rate measurements at 25° C., PKE Adnectins were applied as analytes at 500 nM in HBS-P+(0.01 M HEPES pH 7.4, 0.15 M NaCl, 0.005% v/v Surfactant P20) running buffer at a flow rate of 20ul/min for 120 s over the immobilized albumins, followed by 800 s for dissociation. […] Regeneration of the chip surface between cycles was accomplished with two 30 second pulses of 10 mM Glycine, pH 2.0. Kinetic traces of reference-subtracted sensorgrams were fit to a 1:1 binding model for affinity using the Biaevaluation software. Only the dissociation phase was fit for determination of off-rates.

[3] = molecular target: T1, mouse serum albumin (MSA), full length; test: SPR off-rate, immobilized MSA, 500 nM Adnectin, 25 C
Method: as §2

[4] = molecular target: T2, human serum albumin (HSA), full length; test: SPR off-rate ratio to parent ADX_7016_A01, HSA, 25 C
Method: as §2

[5] = molecular target: T2, human serum albumin (HSA), full length; test: direct binding ELISA, coated HSA, anti-His-HRP; design: unit not given here
Method: as §1

[6] = molecular target: T1, mouse serum albumin (MSA), full length; test: SPR off-rate ratio to parent ADX_7016_A01, MSA, 25 C
Method: as §2

T2 sequence (P02768 25-609): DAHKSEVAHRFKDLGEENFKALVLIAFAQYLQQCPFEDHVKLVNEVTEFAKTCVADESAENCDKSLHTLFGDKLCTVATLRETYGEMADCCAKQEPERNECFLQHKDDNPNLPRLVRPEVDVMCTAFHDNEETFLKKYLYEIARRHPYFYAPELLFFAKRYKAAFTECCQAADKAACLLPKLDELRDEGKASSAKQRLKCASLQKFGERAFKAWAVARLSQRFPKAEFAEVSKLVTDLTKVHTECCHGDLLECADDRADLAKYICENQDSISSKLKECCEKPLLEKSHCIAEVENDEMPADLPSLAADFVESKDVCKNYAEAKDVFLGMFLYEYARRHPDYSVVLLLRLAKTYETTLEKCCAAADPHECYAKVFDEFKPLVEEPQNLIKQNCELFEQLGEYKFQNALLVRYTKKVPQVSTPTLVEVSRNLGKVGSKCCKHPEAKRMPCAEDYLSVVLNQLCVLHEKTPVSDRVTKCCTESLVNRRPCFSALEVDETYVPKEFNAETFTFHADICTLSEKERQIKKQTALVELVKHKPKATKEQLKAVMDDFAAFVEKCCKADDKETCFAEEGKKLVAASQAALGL

Row | Binder | MSA DB ELISA (OD450) Ymax obs [1] | MSA DB ELISA (OD450) Ymin obs [1] | koff [2] [s⁻¹] | koff [3] [s⁻¹] | HSA kd/Parent kd [4] | HSA DB ELISA (OD450) Ymax obs [5] | HSA DB ELISA (OD450) Ymin obs [5] | MSA kd/Parent kd [6]
1 | ADX_6727_B01 (K85S) (designed binder, Full His6-tagged entry) MGVSDVPRDLEVVAATPTSLLISWDAPAVTVRYYRITYGREVQKYSDLGPLYIYQEFTVPGSKSTATISGLKPGVDYTITVYAVTGSGESPASSSPISINYRTEIDKPSQHHHHHH | 91 | 88 | 0.000321 | 0.000501 | 1.2 | 97 | 94 | 1.2
2 | ADX_6727_D10 (Q33D/K85T) (designed binder, Full His6-tagged entry) MGVSDVPRDLEVVAATPTSLLISWDAPAVTVRYYRITYGREVDKYSDLGPLYIYQEFTVPGSKSTATISGLKPGVDYTITVYAVTGSGESPASSTPISINYRTEIDKPSQHHHHHH | 42 | 1 | 0.0134 | 0.0608 | 50 | 19 | 2 | 142
3 | ADX_6727_F06 (L41A/K85T) (designed binder, Full His6-tagged entry) MGVSDVPRDLEVVAATPTSLLISWDAPAVTVRYYRITYGREVQKYSDLGPAYIYQEFTVPGSKSTATISGLKPGVDYTITVYAVTGSGESPASSTPISINYRTEIDKPSQHHHHHH | 91 | 4 | 0.00298 | 0.0055 | 11 | 90 | 19 | 12.8
4 | ADX_6727_H02 (I43S) (designed binder, Full His6-tagged entry) MGVSDVPRDLEVVAATPTSLLISWDAPAVTVRYYRITYGREVQKYSDLGPLYSYQEFTVPGSKSTATISGLKPGVDYTITVYAVTGSGESPASSKPISINYRTEIDKPSQHHHHHH | 39 | 1 | 0.0139 | 0.00977 | 52 | 37 | 2 | 22.8
5 | ADX_6727_D01 (K85T) (designed binder, Full His6-tagged entry) MGVSDVPRDLEVVAATPTSLLISWDAPAVTVRYYRITYGREVQKYSDLGPLYIYQEFTVPGSKSTATISGLKPGVDYTITVYAVTGSGESPASSTPISINYRTEIDKPSQHHHHHH | 91 | 88 | 0.000259 | 0.000433 | 1 | 97 | 88 | 1
6 | ADX_6727_G01 (L41A) (designed binder, Full His6-tagged entry) MGVSDVPRDLEVVAATPTSLLISWDAPAVTVRYYRITYGREVQKYSDLGPAYIYQEFTVPGSKSTATISGLKPGVDYTITVYAVTGSGESPASSKPISINYRTEIDKPSQHHHHHH | 87 | 3 | 0.0037 | 0.00639 | 14 | 79 | 12 | 14.9
7 | ADX_6727_B05 (I43S/K85T) (designed binder, Full His6-tagged entry) MGVSDVPRDLEVVAATPTSLLISWDAPAVTVRYYRITYGREVQKYSDLGPLYSYQEFTVPGSKSTATISGLKPGVDYTITVYAVTGSGESPASSTPISINYRTEIDKPSQHHHHHH | 63 | 2 | 0.00749 | 0.00781 | 28 | 60 | 4 | 18.2
8 | ADX_6727_D06 (Y44A/K85S) (designed binder, Full His6-tagged entry) MGVSDVPRDLEVVAATPTSLLISWDAPAVTVRYYRITYGREVQKYSDLGPLYIAQEFTVPGSKSTATISGLKPGVDYTITVYAVTGSGESPASSSPISINYRTEIDKPSQHHHHHH | 85 | 1 | 0.00546 | 0.00622 | 20 | 67 | 8 | 14.5
9 | ADX_6727_F04 (Y44A/K85A) (designed binder, Full His6-tagged entry) MGVSDVPRDLEVVAATPTSLLISWDAPAVTVRYYRITYGREVQKYSDLGPLYIAQEFTVPGSKSTATISGLKPGVDYTITVYAVTGSGESPASSAPISINYRTEIDKPSQHHHHHH | 77 | 2 | 0.00624 | 0.00694 | 23 | 56 | 6 | 16.2
10 | ADX_6727_G05 (I43S/K85A) (designed binder, Full His6-tagged entry) MGVSDVPRDLEVVAATPTSLLISWDAPAVTVRYYRITYGREVQKYSDLGPLYSYQEFTVPGSKSTATISGLKPGVDYTITVYAVTGSGESPASSAPISINYRTEIDKPSQHHHHHH | 32 | 1 | 0.0143 | 0.0116 | 53 | 38 | 2 | 27
11 | ADX_6727_C01 (K85A) (designed binder, Full His6-tagged entry) MGVSDVPRDLEVVAATPTSLLISWDAPAVTVRYYRITYGREVQKYSDLGPLYIYQEFTVPGSKSTATISGLKPGVDYTITVYAVTGSGESPASSAPISINYRTEIDKPSQHHHHHH | 93 | 90 | 0.000297 | 0.000509 | 1.1 | 98 | 88 | 1.2
12 | ADX_6727_C07 (R30A/K85S) (designed binder, Full His6-tagged entry) MGVSDVPRDLEVVAATPTSLLISWDAPAVTVRYYRITYGAEVQKYSDLGPLYIYQEFTVPGSKSTATISGLKPGVDYTITVYAVTGSGESPASSSPISINYRTEIDKPSQHHHHHH | 94 | 6 | 0.00218 | 0.00334 | 8 | 100 | 44 | 7.8
13 | ADX_6727_B11 (Q33D/K85S) (designed binder, Full His6-tagged entry) MGVSDVPRDLEVVAATPTSLLISWDAPAVTVRYYRITYGREVDKYSDLGPLYIYQEFTVPGSKSTATISGLKPGVDYTITVYAVTGSGESPASSSPISINYRTEIDKPSQHHHHHH | 11 | 1 | 0.0151 | – | 56 | 12 | 1 | –
14 | ADX_6727_D02 (R30N) (designed binder, Full His6-tagged entry) MGVSDVPRDLEVVAATPTSLLISWDAPAVTVRYYRITYGNEVQKYSDLGPLYIYQEFTVPGSKSTATISGLKPGVDYTITVYAVTGSGESPASSKPISINYRTEIDKPSQHHHHHH | 93 | 17 | 0.00135 | 0.00118 | 5 | 99 | 20 | 2.8
15 | ADX_6727_F03 (I43Y as printed in Table 4; I43A in Table 7) (designed binder, Full His6-tagged entry) MGVSDVPRDLEVVAATPTSLLISWDAPAVTVRYYRITYGREVQKYSDLGPLYAYQEFTVPGSKSTATISGLKPGVDYTITVYAVTGSGESPASSKPISINYRTEIDKPSQHHHHHH | 67 | 2 | 0.00468 | 0.0038 | 17 | 89 | 9 | 8.9
16 | ADX_6727_C03 (Y35S) (designed binder, Full His6-tagged entry) MGVSDVPRDLEVVAATPTSLLISWDAPAVTVRYYRITYGREVQKSSDLGPLYIYQEFTVPGSKSTATISGLKPGVDYTITVYAVTGSGESPASSKPISINYRTEIDKPSQHHHHHH | 95 | 23 | 0.00107 | 0.00121 | 4 | 99 | 31 | 2.8
